# Source: patent US20200277373A1, “ANTI-TREM2 ANTIBODIES AND METHODS OF USE THEREOF” (Denali Therapeutics Inc., priority 2017, published 2020)
# B1: RS9.F6: anti-TREM2 antibody clone; VH SEQ ID NO:24, VL SEQ ID NO:35 (antibody, V domains shown)
# VH: QVQLQQPGAELVKPGASVKLSCKASGYTFTSYWMHWVKQSPGRGLEWIGRSDPTTGGTNYNEKFKTKATLTVDKPSSTAYMQLSSLTSDDSAVYYCVRTSGTGDYWGQGTSLTVSS
# VL: DVVMTQTPLSLPVSLGDQASISCRSSQSLVHNNGNTFLHWYLQKPGQSPKLLIYKVSNRFSGVPDRFSGSGSGTDFTLKISRVEAEDLGVYFCSQTTHVPPTFGGGTKLEIK
# B2: 21D11: anti-TREM2 antibody clone; VH SEQ ID NO:14, VL SEQ ID NO:25 (antibody, V domains shown)
# VH: QVQLQQSGAELARPGASVKLSCKASGYTFTSYWIQWVKQRPGQGLEWIGTIYPGDGDARYTQKFKGKATLTADKSSSTTYMQLNSLASEDSAVYYCARNGITTAGYYAMDYWGQGTSVTVSS
# VL: DIQMTQSPASLSVSVGETVTITCRASENIYSNLAWYQQKQGRSPQLLVYAATNLADGVPSRFSGSGSGTQYSLKINSLQSEDFGYYYCQHFWGTPYTFGGGTKVEIK
# Assays:
# [1] = target: T1, Human TREM2 expressing HEK cells (Homo sapiens, UniProt Q9NZC2); assay: FACS surface binding on HEK 293 overexpressing human TREM2 (H6); details: FIG. 1A, mixed cell lines
# T1 construct: expressed in transfected cells
# Method: HEK 293 overexpressing human TREM2 (H6) and HEK 293 overexpressing GFP (B5) were harvested by 0.05% trypsin and incubated at 37° C. for 2 hours for surface TREM2 recovery. 293F overexpression mouse TREM2 were harvested and labelled with NucBlue live cell stain ReadyProbes reagent for 10 minutes (2 drops of reagent added per mL of media). After labeling, cells were washed twice with 1×PBS. NucBlue labeled 293F cells were mixed with H6 and B5 in FACS buffer (PBS-+-0.5% BSA) with human Trustain FcX solution (Biolegend, cat #422302) at a density of 10^6/mL per cell line. Mixed cell lines were seeded at 300,000 cells per well in a 96-well round-bottom and incubated 20 minutes at room temperature. After incubation, cells were centrifuged and test anti-TREM2 antibodies were added, then incubated for 45 minutes on ice. After incubation, cells were centrifuged and washed with FACS buffer three times. Cells were then incubated with secondary antibody (Alexa Fluor 647 AffiniPure F(ab′)2 fragment goat anti-mouse IgG, Fcγ fragment specific (1:200, Jackson ImmunoResearch, cat #115-606-071) for 30 minutes on ice. After incubation, cells were washed with FACS buffer three times and resuspended in 90 μL of FACS buffer, then analyzed by flow cytometry (BD FACSCanto II, San Jose, Calif.). 20,000 events were obtained for each sample.
# human macrophages = assay: Cell survival assay, human monocyte-derived macrophages, restricted or no M-CSF, CellTiter Glo; assay type: cell-based; details: plate coated antibody, 5 ng/mL or no M-CSF, day 6
# Method: TREM2 can support microglia energy homeostasis (Ulland et al., Cell, 2017, 170:649-663). […] To understand if enhancing TREM2 activity with TREM2 agonistic antibodies is sufficient for macrophage/microglia survival under limited M-CSF conditions, human macrophage differentiation and survival studies were performed using antibodies as described herein. Human monocytes isolated from peripheral blood were incubated with 5 ng/mL M-CSF in the presence of titrated concentrations of plate coated TREM2 antibodies or isotype controls. On day 6 cell viability was determined by CellTiter Glo viability assay.
# TREM2 = target: T2, TREM2 (Homo sapiens, UniProt Q9NZC2); assay: TREM2 pSyk antagonist assay on human macrophages (antibody pre-incubation, then liposomes); assay type: cell-based; details: FIGS. 9C-9D, 30 nM antibody
# T2 construct: macrophage cells that endogenously express TREM2; endogenous in cells; host or cells: primary human monocyte-derived macrophages from donor blood
# T2 sequence (Q9NZC2 19-230): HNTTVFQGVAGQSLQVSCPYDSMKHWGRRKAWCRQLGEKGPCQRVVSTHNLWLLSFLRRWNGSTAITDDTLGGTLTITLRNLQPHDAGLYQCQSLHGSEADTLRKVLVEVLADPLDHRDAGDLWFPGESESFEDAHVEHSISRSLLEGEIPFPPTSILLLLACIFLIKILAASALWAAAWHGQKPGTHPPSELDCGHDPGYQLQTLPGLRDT
# Method: Human macrophages were differentiated from donor blood using a human monocyte enrichment cocktail (Stem Cell Technologies) and culturing monocytes with human mCSF for five days in macrophage media (RPMI+10% Hyclone FBS+Glutamax+Pen/Strep+non-essential amino acids+sodium pyruvate). On the fifth day, the human macrophages were scraped from the flasks and were re-plated at 100,000 cells/well on a 96-well poly-D-lysine-coated plate in the macrophage media (without mCSF). The cells were incubated for 24 hours to adhere, then the media was removed.
# Antibodies diluted in RPMI alone were immediately added to the cells, and allowed to incubate for 30 minutes at 37° C. The antibodies were then removed. Lipid vesicles comprised of 70% DOPC and 30% POPS (made according to the procedure for making vesicles described above) in HBSS were added to the cells and incubated […] at 37° C. The liposome/antibody solution was removed, and 35 μL lysis buffer (Cell Signaling Technologies, CST) was added using the liquid handler. The lysate was then incubated at 4° C. for 30 minutes, then either frozen at −80° C. or immediately carried forward to a pSyk AlphaLISA assay as described above.
# T1 sequence (O43914 22-113 partner, one chain of several): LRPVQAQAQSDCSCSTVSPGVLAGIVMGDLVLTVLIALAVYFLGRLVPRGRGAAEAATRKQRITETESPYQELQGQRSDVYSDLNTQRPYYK
Molecule,binding to human and mouse TREM2 HEK cells (in words) [1],survival of human macrophages (human macrophages),liposome mediated pSyk signaling after antibody pre-incubation (TREM2)
B1,binding to both mouse and human TREM2 cells,increased the survival,
B2,,,blocked
